Article PMC4200421, “A distinct tethering step is vital for vacuole membrane fusion” (eLife, 2014)
One block for each binder: values may come before it.

Biological target: T1, Vam3p (vacuolar Qa-SNARE), on 3Q-SNARE proteoliposomes (S. cerevisiae, UniProt Q12241 1-283)
T1 construct: Vam3p, vacuolar Qa-SNARE of Saccharomyces cerevisiae; Bait of the co-immunoprecipitation (anti-Vam3p antibody); In every experiment Vam3p stood on the same proteoliposomes as the Qb-SNARE Vti1p and the Qc-SNARE Vam7p (3Q-RPLs); Constructs are in cited work; also called 3Q-RPLs; 3Q-SNAREs
T1 sequence (looked up): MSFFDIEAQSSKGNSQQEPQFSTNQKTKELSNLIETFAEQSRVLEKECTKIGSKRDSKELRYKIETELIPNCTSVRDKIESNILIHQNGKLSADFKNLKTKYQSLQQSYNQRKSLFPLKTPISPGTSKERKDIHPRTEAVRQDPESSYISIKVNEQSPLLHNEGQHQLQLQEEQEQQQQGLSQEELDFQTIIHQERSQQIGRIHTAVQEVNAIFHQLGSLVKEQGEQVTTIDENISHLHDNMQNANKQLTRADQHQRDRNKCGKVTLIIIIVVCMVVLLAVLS
Assay: co-IP; 1R-RPLs, or soluble Nyv1p at 100 nM, with 3Q-RPLs (Vam3p, Vti1p, Vam7p); 40 µl reaction 40 min at 27°C with HOPS (100 nM) or its buffer; diluted 10-fold in RIPA buffer with affinity-purified anti-Vam3p antibody (50 µg/ml) and 10 µM GST-Nyv1p; protein A magnetic beads, 2 hr room temperature; immunoblot with anti-Nyv1p
Settings: both partners purified

- binding result: binds
B1: Nyv1p (vacuolar R-SNARE), membrane-anchored, on R-SNARE proteoliposomes (natural protein, S. cerevisiae, UniProt Q12255 1-253, looked up)
chain: MKRFNVSYVEVIKNGETISSCFQPFQKNENYGTITSANEQITPVIFHNLIMDMVLPKVVPIKGNKVTKMSMNLIDGFDCFYSTDDHDPKTVYVCFTLVDMPKILPIRILSGLQEYESNATNELLSSHVGQILDSFHEELVEYRNQTLNSSGNGQSSNGNGQNTISDIGDATEDQIKDVIQIMNDNIDKFLERQERVSLLVDKTSQLNSSSNKFRRKAVNIKEIMWWQKVKNITLLTFTIILFVSAAFMFFYLW
notes: Nyv1p, vacuolar R-SNARE of Saccharomyces cerevisiae, membrane-anchored form; Schwartz and Merz, 2009; Zucchi and Zick, 2011 for the SNARE constructs; Exchanged into octylglucoside buffer before reconstitution; also called wild-type Nyv1p; 1R; source: pure recombinant protein, purified as described (cited work), reconstituted into proteoliposomes by detergent dialysis

- binding result: binds
B2: Soluble Nyv1p (sR), Nyv1(Δtm), Nyv1p(1-231) (domain or fragment, S. cerevisiae, UniProt Q12255 1-231, looked up)
chain: MKRFNVSYVEVIKNGETISSCFQPFQKNENYGTITSANEQITPVIFHNLIMDMVLPKVVPIKGNKVTKMSMNLIDGFDCFYSTDDHDPKTVYVCFTLVDMPKILPIRILSGLQEYESNATNELLSSHVGQILDSFHEELVEYRNQTLNSSGNGQSSNGNGQNTISDIGDATEDQIKDVIQIMNDNIDKFLERQERVSLLVDKTSQLNSSSNKFRRKAVNIKEIMWWQKVKN
notes: Nyv1p of Saccharomyces cerevisiae without its transmembrane anchor (Δtm); the methods name only Nyv1(Δtm); also called sNyv1p; recombinant soluble domain of Nyv1p; source: purified as GST-TEVsite-Nyv1(Δtm) as described (Thorngren et al., 2004), cleaved with TEV protease prior to use; not shown: GST, N-terminal, cleaved
